The values below come from the DeepSol protein solubility set.

The nature of this series: soluble on expression in E. coli; label from the status in PepcDB or PDB records.
Regarding “MGSDKIHHHHHHMDTRTLIYLHQYFSIPTVSGGTRSWEFSTRLVQDKWQVCMFCGDSEIHGIPAVNILKLFNTKNVSFKLNVIPLKYSNYMSFSRRIFAFLSFAVRSSLQVLREEKADLTFATSTPLTIAIPALLRKWLHGTPYIFEVRDLWPEMPIAMKAVRSPLAIFLARQLELIAYQNASHIVALSPGMKEGIVKQGISPEKVEVIPNACDNARFNISETIGLEFLRQHPELSGGPLIVYTGTFGHINGVNYLAYLASHMRNIIPEAKFLVVGSGVCESEVREASCQLGILEKNFWMWPPIPKAEMPALLSACTVATSLFKPIPEMEHNSANKFFDALAAGRPVVINYGGWQKEILEQSGAGISISSNDPKVAAIQLAKFLNSSECLQSAQAAARKLADTVFDRDILYKKLANVFQKVLNETHSDI”, the “soluble on expression in E. coli” value is reported as “not soluble”.
Take “MIGILIPVHNEEQLLDLCLETIKQAAAHPALKGEQVEVLVVLDSCTDRSAEIARAHGVMILEVTARNVGQARAEGAAFLLDRGARWLACTDGDSSVASDWLAEQLALDADAVCGTVTLGDWNNDISAPARAAYLKHYQQRDGHRHIHGANLGVSSIAYISAGGFPSLTCHEDVHLVRQLELIGARIAWSCRPRVTTSTRLNSKARGGFGDYLSSLNALEHHHHHH”: the “soluble on expression in E. coli” value is given as “not soluble”.
In the case of “MIETSLDFSGLNDIAKDLEALSRAENNKVLRDATRAGAEVLKEEVIDRAPVRTGKLKKNVVVVTQKSRRRGEISSGVHIRGVNPRTGNSDNTMKANNPRNAFYWRFVELGTANMPAHPFVRPAYDTREEEAASVAIARMNQAIDEVLSK”, the “soluble on expression in E. coli” value is “not soluble”.
Regarding “MKRYSTKHFKRILIANNVNIDIDLKTGIVAKNMAKKEKIEQVISMGGIMWEGLNSSLIKVDEALLKQQI”, the “soluble on expression in E. coli” value is listed as “soluble”.
As for “MSIEGGNYRRIRNFVDRECAKECIEDFSCFGYEWNSEEKICYLKSRSTSGKLIAKPNTMVGFCQDDEDEVRYRLQDHVIVGPIVMEADDVPDGEECKENCRKVGALYYSWRPNSDNQRSNVVPVEEEEDDEEQEVLGHCECISTMNELRLEYDAFSGFIPIPKHKHRRSILLRPFEI”, the “soluble on expression in E. coli” value is recorded as “not soluble”.
Regarding “MGSDKIHHHHHHMNLLPLFLAVAEEDNFRAAADRLGVTRSAVSQGIRRLEDAFGTTLVTRTTRSVRLTEAGERLREALSQPLSDIGTALDRVAGEDEPRGLLRIAVTSIAEQFLSGPLIASFAQAHPKVAIDVTVTDEEFDIVAAGFDAGVRLGEVIEQDMIAVPLTGDQRELAVAAPTYLAVRGTPAHPRELVHHRCIGWRRAPNVAPYRWEFEENGVPFDVAVEPQITTNDLRFMLRSALCGAGITFATEETFRPFVETGELVPLLQDFLPPFPGFFLYFPQRRNMTPKMRALIEHVRRWR”, the “soluble on expression in E. coli” value was “not soluble”.
Regarding “MKIAKFTRINAHQVQNCNNEKIAHERKMEKVFEFLAEDKKTFEASNSFERTLIFCKHDKSAMAALLTLYDSKTIFGTFSEYLITNDKTVLERERVQVNNGEKMLAICNMDFMDDFQLGLAKHYIFLDFPLKIIGIKKMLDRLNTMAQQSEQVIDIDFLTTNMDARIYQEALNMEMTMRGSQVPKWLTELVNGSSELPEDPDVIFVRTCKPDLEPLTAKPAKLPSPRQPESKPSNEASSSQLEPTSASQPPSRVDQILKSRSGLPTKDADSSSEVAPRKRKPKSPAFDIYNMKRQPDGTFLIPSHVMGFCNEDLSEDDEEPDPEYDSEEEYNWMYKLDVW”, the “soluble on expression in E. coli” value is “not soluble”.
“MEVKYGLHPTLGEHGERELLALQKVDYPKGDVKAQAKHTARTLLECYNCHSLGEYNTLLNLYNITVYEVRGSVDGKEYHGIMYGALDDNGQQVGTPFKSSKFGKVFGYEALQKKFAASAEKVKKDNLPERLEHHHHHH”: the “soluble on expression in E. coli” value is reported as “not soluble”.
For “MRAVAEQARVKTLRIQPRAMALPPDELAECARTAVNEALADLRSAMPSDAGPGVDPAAALEYLNQVQVEGLRTLELVTGALEQAMAQIRQTAAAHGTPAPHGLHRIVEEVQQTLAAVSRPPQEAPDDLEGTAEAAQGRVRAVAEPGGRIRSLTVQARAMRSPSQELAEHIVTAVNNALDDLQAKTRRETEIVEIDQRRLDELRESAMRQSAEFMRSVSDMINSIQPR” the value was “not soluble”.
As for “GPGSMRSTAELSSPLSISLPCSLSAEPPHHTLPATTANIIALRRAADPSTFTHTHTNTARPPLPAPYFRQRDSSWCSHASPHAHRHTHTYPSLSLPAPRFFFAHRYAAAALPRRLPAIMTHEFHSLFLPLAAEEQAVFADFFPTLVASSTSIQDGVAGEHSLQPTVSATLDTYSSACATSPHSPGECGSLPEVGRGAATDAQARCDAPLRSLVFAIGSARADAVIVVLRRGDVVLYGLDRLHTPPYEKCRIRPLPTTQQLMAARENARRYSNADGAASAGSWTDASCSGGVAGSRSVVNGGVEATCAALLPLHIGYCCRIPLSASFSSATPPAGGPRRGGGGGSRDERDEDVVYLRGIVGSSDGRVSLFSDTSYTLSFAAHDIPVAQVDAVLLPPCTLDRRVSTNASPTTSTRGFSSTGAGANTRTAPSGELTSPTSPQPQERLARATQRLGLVTSGNDGVVLLWRRLGDSMSPIVVVRPSTFSSRAAYAVYHPSALSALLSSWAPPSQREAAVDAELSCPPSCLLHAATSTSHTLRVRQLASISPKPTHKSLSSAARRESVEEAAPTSMSAALPGSWSATVTAIAAHDSVTLVAMGASLLSLVKLNPRSAARVWKAAESITQLVLIDSVALAVCARSGTVHVLTIHPGTGRVVRQRVYYSYKNRAIHHTSLHVASLLMTIVDVCGSTELVQLPTDVMLPCDVRLRRGEYTSGDAANVNLLASMAALRAKVCIEAIKGGSGGGVSGSVAANEAEVTGGSTSMYEANAALDQLNERLLLARYAVPEECDNFMGANVHVF”, the “soluble on expression in E. coli” value is given as “not soluble”.
“MSLLILIGWQIQVRQPSDYIMNKTEFYADLNRDFNALMAGETSFLATLANTSALLYERLTDINWAGFYLLEDDTLVLGPFQGKIACVRIPVGRGVCGTAVARNQVQRIEDVHVFDGHIACDAASNSEIVLPLVVKNQIIGVLDIDSTVFGRFTDEDEQGLRQLVAQLEKVLATTDYKKFFASVAGEGGSHHHHHH”: the “soluble on expression in E. coli” value was “soluble”.
On to “MAHHHHHHMSARMQFPLSQRRHTNIAVVRYSKNGVKLEIACYKNKVISYRSGTENRLDEVLQVERIFANVARGYLASEKEIQTVFGGEMTEAEAIRYMLDHGELQVAQQERAAEVDEMFKDIAVIISQKCINTKTQRPFPPQVVEQALRSIGAAVKLDQSVKKQALGLIHLLIDSDILPIARANMKIRCTTTSEAALEKLRGWCRDNDADVVSDSVTGKTSDGGSGNFGHALLLLMQPNLFRDLDHFVKEALPSGSTIHMVEAAVTEVGDSDVLLDANAVSLANAQPGRAEEEATMAGSRRAAAAPSSSSAGEVNRGCSDGRGGETGMSSNLGQGADNASNGQHQSDGEGKRGRTGKAKGTTRRGHRGRQSNNSDGDDLLDGSTDGAAEGGLGVDHDIAAGLQRLGLDPSHDLQDDSDDDGGRGRGSRGKKKKNASGTGGGPYQSQGAGGRKAGGGAAAVDDDDNAGKGKKGRKNAKSKKVAAAEKAKPGAEGAFSDSDEELMGNRKQRAKKQQETRMQQGGNDWHEEDFDYGEDEEAEVQLS”, for which the “soluble on expression in E. coli” value is “soluble”.
For the sequence “MENFSLLYSSEEDALLSYADIRNFQLVWNMVDIEQKRSIPVRRVKFLLRLLKGRLEVNDESDGLLFKHMCHEMERLHNGDDVSFHDVLNMLSYRSVDIRKSLQLEELLQREELEYIIEEEVAKHTIRAWLENCLKNIKAKQNNTLGKMSSIGSTFAFPQSQEVLTKGVVLTEASPEEDSLQGDKGSGKKKAQRGNSITEIVAEAQKKSVKRATDKISERRGTLRQMQMGTYDELEEVEEDEDTDGEIRRSSFEYSGVDMIQMSHEKQLEDVKTWWTLCD”, the “soluble on expression in E. coli” value is “not soluble”.
In the case of “MSLVINAPFKVIASKVTAEVLKSVNSKLGSYSTNYATSSEARATNVAVATRSIDGKVVMPGETFSFNEVVGERTRARGYKEAGVIVNQKLESGFGGGVCQVSSTLYNALLRSNIKMTERVHHTFPSSYVPTGLDATVDWGNIDLKFKNTFKYPIYIQGYTGGREVGFNIYSNSELAREGHHHHHH” it was “not soluble”; in that of “MTVAVIGAHGGIGRRLLPRLNEAGHDPIGVVRSEDQFAAIRDRGAEPRLGDLEGEVASALDGADAVVFTAGAGGSTGWDKTILVDLWGAERAVHACEEKEIDRFVMVSSRGAGDPESRQGPIKPYIVAKHVADRTLQRSSLDETILRPTRLTDAEGTGRVAAYVDTDPDAGDPIPRADVAQAVVQCLADDNTVGHAITLYGGDTPIGEALRPSGLEHHHHHH”, “not soluble”.
